Reference: the nanobody polyreactivity screen of Harvey et al. (2022)

Experiment: yeast display, Sf9 membrane polyspecificity reagent, FACS + sequencing; frameworks hold sequencing errors
Method in brief: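 Nanobodies came from a synthetic yeast display library in Saccharomyces cerevisiae BJ5465, induced with galactose for 36–48 hours and stained for 1 hour at 4 °C with 10% biotinylated, detergent-solubilized Sf9 membrane reagent. Cells were enriched on streptavidin microbeads and then FACS-sorted, with low and high (top ~1%) gates set on anti-HA fluorescence for expression and streptavidin fluorescence for reagent binding. Each polyreactivity label reflects the gate a clone came from. Genes were amplified by colony PCR, sequenced by MiSeq 2 × 250 and filtered by CDR length.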

**Q.** Which “polyreactivity (PSR sort gate)” value does the source give for “QVQLVQSRGGLVQAGGSLRLSCAASGYIFWYYVKGWNRQAPGKERELVASITIGGGRTYYADSVKGRFTISRDFAKNSVYLQMNCMKPEDTAVYYCAAVTTPYNSDFDYWGQGTQVTVSS” here?
**A.** low polyreactivity

**Q.** For “QVQLVQTGRGLVQAGGSLRLICAASGIIFKYYGMGWYRQAPGKERELVAAITDRGGSTYYADSVKGRFTISRDHAKNTVYLQMNSLKPEDTAVYYCSAVPSSGKSGFRGGYWGQVTQVTVSS”, which “polyreactivity (PSR sort gate)” value is on record?
**A.** high polyreactivity

**Q.** With “QVQLVVSGGGLVQAGCTHRISCAPSGRISKLYAMGWSIPAPGKERELVAAISWRGGSTYYADSVKGRFTISRDNAKITVYLQLYSLKPEDTAVYFCNKAYPADDDYWGQGTQVSVSS” as the sequence, how does the “polyreactivity (PSR sort gate)” value read?
**A.** low polyreactivity

**Q.** With “QVQLVVSGGGLVQAGGILRFSCAASGRTIWYNAMGWYRQAPGKERELVASISRSGGSTYYADSVKGRFTISRDNAKNTVYLQMNSLKPEDTAVYYCAAESFDYTTWYGYWGQGTQVTVSS” as the sequence, how does the “polyreactivity (PSR sort gate)” value read?
**A.** high polyreactivity

**Q.** With “QVQLVVSGGGLVQAGGRLRLSCAASGSSFVGYAMGWYRQAPGKERELVAAISRRGGSTYYADSVKGRFTISRDNAKNTVYLQMNRLKPEDTSVYYFAARFKVSYYNLYSYGYWRQGTQVTVSS” as the sequence, how does the “polyreactivity (PSR sort gate)” value read?
**A.** high polyreactivity

**Q.** Which “polyreactivity (PSR sort gate)” value does the source give for “QVQLVVSGGGLVQAGGSLRLSCAASGITFYEYAMGWYRQSPGKESELVATITSGGNTNYADSVKGRFTISRDNAKNTGYLLMNSLIPEDTSVYYCAASVGYYSRYGYGYWGQGTQVTVSS” here?
**A.** low polyreactivity

**Q.** Which “polyreactivity (PSR sort gate)” value does the source give for “QVQLVVSGGGLVQAGGSLRLSCAASGLTFWKYTLGWYRQAPGKEREWVAAMSISGTNTYYADSVKGRFTISRDNAKNTVYLQMNSLKPEDTAVYYCAAVRGYPPTNYYYCGQGTQVTVSS” here?
**A.** high polyreactivity

**Q.** Which “polyreactivity (PSR sort gate)” value does the source give for “QVQLVVSGGGLVQAGGSLRLSCAASGRIFVANAMGWYRQAPGKERELVAAISGRGSRTYYADSVKGRFTISRDNAKNTVYLQMNSLKPEDTAVYYCAARYRYDGRYDYWGQGTQVTVSS” here?
**A.** high polyreactivity

**Q.** For “QVQLVVSGGGLVQAGGSLRLSCAASGRIIFWYALGWYRQAPGKERELVAGITSGGSTNYADSVKGRFTISRDNAKNTVYLQMMRLKPEVTAVYYCNTVDSIPIGSGLYYYWGQGTQVTVSS”, which “polyreactivity (PSR sort gate)” value is on record?
**A.** low polyreactivity

**Q.** For “QVQLVVSGGGLVQAGGSLRLSCAASGSIFGENAMGWYRQAPGKERELVAAITWSGASTYYADSVKGRFTISRDNAKNTVFLKMNSLKPEDTAVYYCNDDRFVRFSTFDYWGQGTQVTVSS”, which “polyreactivity (PSR sort gate)” value is on record?
**A.** high polyreactivity

**Q.** Which “polyreactivity (PSR sort gate)” value does the source give for “QVQLVVSGGGLVQAGGSLRLSCAASGSTFSRNAMGWYRQAPGKERELVASISWSGARTYYADSVKRRFTISRDNAKNTVYLQMNSLKPEDTAVYYCAKFRSYRGPYNFWGQGTQVTVSS” here?
**A.** high polyreactivity

**Q.** With “QVQLVVSGGGLVQAGGSLRLSCAASGSTLVIYAMGGYRQAPGKERELVAAIRRTGGSTYYADSVKGRFTISRDNAKTTVDLQKNSLKPEDTAVYYCAKRSYTGYEYWGQGTQETVSS” as the sequence, how does the “polyreactivity (PSR sort gate)” value read?
**A.** low polyreactivity

**Q.** Which “polyreactivity (PSR sort gate)” value does the source give for “QVQLVVSGGGLVQAGGSLRLSCAPSGRTFKPYVMGWYRQAPGKERELVAAISSRGGSTYYADSVKGRFTISRDNEKTTVFLQMNSLKPEDTAVYYCNAAYWFSNKNGYWGQGTQVTVSS” here?
**A.** high polyreactivity

**Q.** Which “polyreactivity (PSR sort gate)” value does the source give for “QVQLVVSGGGLVQAGGSLSLSWDASGRTFARYTMGWYRQAPGKERELVASITRGGSPYYADSVKGRFTISRDNAKNYVYLQMNSLKAEDSSVFYCAARFPQHNYWAMDYCGQGTQVTVSS” here?
**A.** high polyreactivity

**Q.** For “QVQLVVSRGGLVQAGGSLRLSCAASGSTFYYNAMGWYRQAPGKERELVAAISRSGGRTYYADSVKGRFTISRDNAKNTVYLQMNSLKPEDTAVYYCAAEYFDWWVTYDYWGQGTQVTVSS”, which “polyreactivity (PSR sort gate)” value is on record?
**A.** high polyreactivity

**Q.** Which “polyreactivity (PSR sort gate)” value does the source give for “QVQLVYSGGGLVQAGGSLRISCAPSGRTYRKYAMGWYIQAPGKERELVAANSRSGGSTYYANSVKGRFTISRDIAKNTFYLQMNSLKPDDTAVYYCAAVPVHTGSLYWGFTTGYDYWGQVTQVTVSS” here?
**A.** low polyreactivity

**Q.** With “QVQLVYSGGGLVQAGGSLRLSCAASGLILWPYTMGWYRQSPWKERELVAAISSSGGSTYYADSVKGRFTISRDNAKNTVYLQMNSLKPEDTAVYYCAAVCWVISGKNGAGSMDYWGLGTQVTVSS” as the sequence, how does the “polyreactivity (PSR sort gate)” value read?
**A.** high polyreactivity

**Q.** For “QVQLVYSGGGLVQAGGSLRLSCAASGSTFQAYDMGWYRQAPGKERELVAAITTGGSTNYADSVKGRFTISRDNAKNTVYLQLNSLKPEDTAVYYCNADFIYVLYYVVLYDYWGQGTQVTVSS”, which “polyreactivity (PSR sort gate)” value is on record?
**A.** low polyreactivity

**Q.** Which “polyreactivity (PSR sort gate)” value does the source give for “QVQLVYSRRGLVQAGGSLRLSCAASGLIFAWYAIGWYRQATVNVRELVATISWNGDRTYYADSVKGRFTIARDNGKTSVYLQINSLQAEDTAVYYCAAYSVFRSYDYWGQGTQVTVSS” here?
**A.** high polyreactivity

**Q.** With “QVQNVESGGGLVQAGGSLRLICAASGSIFDPYAMGRYRQAPGKEMELVAAIRKRGSSTYYADSVKGRFTISRDNAKYTVYLQMNSLKPEDTAVYYCAATWVSVWYRYDYWGQGTQVTVSA” as the sequence, how does the “polyreactivity (PSR sort gate)” value read?
**A.** high polyreactivity

**Q.** Which “polyreactivity (PSR sort gate)” value does the source give for “QVQPVESGAGLVQAGGSLRLSCAASGSIFWSYAMGLYRQAPGKERELVAAITTSDGSTYYADSVKWRFTISRDNAKNTVYLQMNSLKPEDTAVYYCAADTYYVSYGYYYWGQGTQVTVSS” here?
**A.** low polyreactivity

**Q.** With “QVQQQESGGGLVQAGGILRMSCAASGTIFSEANMGSYRQAPGKERELVATIGQGSTTNYADSVKGRFTISRDNAKNTVYLQMNSLKPEETAVYYCAVVNVDPVGFVYWGQGTQVTVSS” as the sequence, how does the “polyreactivity (PSR sort gate)” value read?
**A.** low polyreactivity

**Q.** Which “polyreactivity (PSR sort gate)” value does the source give for “QVQQQESGGGLVQAGGSLRLSCAASGSIFDGFNMGWYRQAPGKEREFVAAISYGASTYYADIVKGRFTDSRDNAKYSVYLQMIRLKPEDTAVYYCAVYDELYHVLVYWGRGTQVTVSS” here?
**A.** low polyreactivity

**Q.** With “QVQQQESGGGLVQAGGSLRLSCAASGTIFQLTVMGRYRQAPGKERELVASIDYGGNTNYADSVKGRFTISRDNAKNTVYLQMNSLKPEDTAVYYCAASSDSWTTHPYWGQGTQVTVSS” as the sequence, how does the “polyreactivity (PSR sort gate)” value read?
**A.** low polyreactivity

**Q.** Which “polyreactivity (PSR sort gate)” value does the source give for “QVQQQESGGGLVQAGGSLRLSCAASGTIFQLTVMRRYRQAPGKERELVASIDYGGNTNYADSVKGRFTISRDNAKNTVYLQMNSLKPEDTAVYYCAASSDSWTTHPYWGQGTQVTVSS” here?
**A.** low polyreactivity

**Q.** Which “polyreactivity (PSR sort gate)” value does the source give for “QVQQQESGGGLVQAGGSLRLSCAASGTILYSLGMGWYRQAPGKRREFVASITWGTTTNYAESVKGRFTISRDNAKNTVYPQMNSLKPEDTAVYYCNKSSTGWTSTYDYWGQGTQVTVSS” here?
**A.** low polyreactivity

**Q.** Which “polyreactivity (PSR sort gate)” value does the source give for “QVQQQESGGGLVQAVGSLRLSCAASGTIIQLTVMGRYRQAPGKERELVASIDYGGNTNYADSVKGRFTISRDNAKNTVYLHMNSLKPEDTAVYYCAKESRPAEGDSGYDYWGQGTLVTVSS” here?
**A.** low polyreactivity

**Q.** Which “polyreactivity (PSR sort gate)” value does the source give for “QVQREESGGGLVQAGGSLRLSCAASGNIFYQYAMGWYRLAPGKEREFVAAISISGTSTYADSVKGRFTISRDNAKNTVYLQMNSLKPVDTAVYWGQGTQVTVSS” here?
**A.** low polyreactivity

**Q.** With “QVQREESVGGLVQAGVSLRLSCAASGLTLAPYAMGAYRQAPGKERELVAAITFSGGSTYYADSVKGRFTISRDNAKNTVYLQMNSLKPEDTAVYYCARDTWAYKYVYPYYSWGQGTQVTVSS” as the sequence, how does the “polyreactivity (PSR sort gate)” value read?
**A.** low polyreactivity

**Q.** Which “polyreactivity (PSR sort gate)” value does the source give for “QVQRLESAGGLVQAGGSLRLSCAASGFIFSYYAMGWYRQAPGKERELVAAIDGSGGSTYYADSVKGRFTISRDNAKNTVYLQKNSLKPEDTAVYYCNTLIYIQGLGYDYGGQGTQVTVSS” here?
**A.** high polyreactivity

**Q.** With “QVQRVESAGGLVQAGGSLRLSCAASGFIFSWYAMGWYRQAPGKERELVAAIRWSSGRTYYADSVKGRFTISRDNAKNTVYVQMNSLKPEDTAVYYCNARSDIHNSYDYWGQGTQVTVSS” as the sequence, how does the “polyreactivity (PSR sort gate)” value read?
**A.** high polyreactivity

**Q.** With “QVQRVESGGGIDQAGGSLRLSCAASGLTFSIYAIGWYRQAPGKERDLVDAISWSGGSTYYADSVKGRFTISRDNAKNTVYLQMISLKPEVTAVYYCAARVYRPWWRYDYWGQGTQVSVSS” as the sequence, how does the “polyreactivity (PSR sort gate)” value read?
**A.** high polyreactivity

**Q.** Which “polyreactivity (PSR sort gate)” value does the source give for “QVQRVESGGGIVQAGGSLRLSCAASRRIFPYYALGWYRQSPGKERELVAAISQSDGSTYYADSVKGRFTISRDNAKNTVYLQMNSLKPEDTAVYYWAKRQASYTKHRKGRGDYWGQGTQVTVSS” here?
**A.** low polyreactivity

**Q.** Which “polyreactivity (PSR sort gate)” value does the source give for “QVQRVESGGGIVQAGGSLRLSSAASGSIYLYHAMGWYRPERGKERQLVAAIRSGGITYYADSVKGRFTISRDNAKNTVYLQMYSLKPEDTADYYCAAKFYWKGTPKKYYYWGQGTQETVSS” here?
**A.** high polyreactivity

**Q.** Which “polyreactivity (PSR sort gate)” value does the source give for “QVQRVESGGGLDQAGGSLRLSCAAYGRTFGLNAMGWYRQAPGKESELVAVISFGDGGKYYADSVKGRFTISRDNAKHTVYLQMNSLKPEDTAVYYCATEYQSTSVWGGHLVINPYDYWGQGTQVTVSS” here?
**A.** low polyreactivity

**Q.** For “QVQRVESGGGLFQAGGSLRLSCAASGFIFASYTMGWYRQAPGKERELVAAISRAGSTYYADSVKGRFTITRDNAKNTVYFQMNSLKPEDTAVYYCNAVSWRTSRYDYWGQGTQVTVSS”, which “polyreactivity (PSR sort gate)” value is on record?
**A.** high polyreactivity

**Q.** With “QVQRVESGGGLFQAGRSLRLSCAASGFIFSTYAMGWYRQAPGKERELVAAISSGGSTYYADSVKGRFTISRDNAKNTVYLQMNSLKPEDTAVDYCAADLGAYWFSYYYWGQGTQLTVSS” as the sequence, how does the “polyreactivity (PSR sort gate)” value read?
**A.** high polyreactivity

**Q.** Which “polyreactivity (PSR sort gate)” value does the source give for “QVQRVESGGGLVQAGASLRLSCAASGGIFYRNAMLWYRQAPGKERELVAAISRRAGSTYYADSVKGRFTISRDNAKNTVYLQMNSLKPEDTAVYYCARRVVNVGDADREYWGQGTQVTVSS” here?
**A.** high polyreactivity

**Q.** For “QVQRVESGGGLVQAGASLRLSCSASGSTFYSNAMGWYRQAPGKERELVAAISGSGGRTYYADSVKGRFTISRDNEKKTVYLQMNSLKPEETAVYFCAVERTRSMGYWGQGTQVTVSS”, which “polyreactivity (PSR sort gate)” value is on record?
**A.** high polyreactivity

**Q.** Which “polyreactivity (PSR sort gate)” value does the source give for “QVQRVESGGGLVQAGGRLRISCAASGRTFRGNDMGWYRQAPGKERELVPTITRNGGSTRYADSVKGRFTISRDNAKNTVYLQMNSLQPEDTAVYYCAAREKYTPALEVEYWGQGTQVTVSS” here?
**A.** high polyreactivity

**Q.** With “QVQRVESGGGLVQAGGRLRLSFAASGFIFYAMGWYRQAPGKERELVAAITLSDGTTYYADSVKGRFTISRDNAKNTVYLQLNSLKPEDTAVYYCAAEYSVPYRGWDGYEYWGQGTQVTVSS” as the sequence, how does the “polyreactivity (PSR sort gate)” value read?
**A.** low polyreactivity
